From publication PMC9728370, “Multiple Tolerances and Dye Decolorization Ability of a Novel Laccase Identified from Staphylococcus Haemolyticus” (Journal of Microbiology and Biotechnology, 2020)

Substrate: CCn1c(=NN=c2sc3cc(S(=O)(=O)O)ccc3n2CC)sc2cc(S(=O)(=O)O)ccc21
Test: purified protein
Assay type: biochemical, Staphylococcus haemolyticus
Details: 100 mM sodium acetate pH 4.5, 30°C, ABTS 50-1,000 μM, 5.21 mg/l enzyme

B1: Mco (Staphylococcus haemolyticus) (protein)
chain: MYNKVFTILIIIFSIIIIASNDTFAESKNDMMNMKEDKKNTMDMTNMKHHDERKKLNSSQGKNEIIFPEVAESKKDNNGYKNYTLKAQKGKTEFYKNNFSNTLGYNGNLLGPTLKLKKGDKVKIKLINNLDENTTFHWHGLEVNGKVDGGPSQVIKPGKEKTIKFEVNQDSATLWYHPHPSPNTAKQVYNGLSGLLYIEDSKKNNYPSNYGKNDLPIIIQDKTFVSKKLNYSKTKDEDGTQGDTVLVNGIVNPKLTAKEEKIRLRLLNGSNARDLNLKLSNNQSFEYIASDGGQLKNAKKLKEINLAPSERKEIVIDLSKMKGEKVSLVDNDKTVILPISNKEKSSNKSNTPKVSKKIKLEGMNDNVTINGNKFDPNRIDFTQKLNQKEVWEIENVKDKMGGMKHPFHIHGTQFKVLSVDGEKPPKDMRGKKDVISLEPGQKAKIEVVFKNTGTYMFHCHILEHEDNGMMGQIKVTN
notes: expressed in E. coli pG-KJE8/BL21
Km: 139.8 µM
kcat: 6.87 s⁻¹
